How the values were obtained:
[1] = molecular target: discoidin domain receptor 1 (DDR1), mouse DDR1a, tagged with cyan or yellow fluorescent protein (mouse); assay: FRET or BRET

discoidin domain receptor 1 (DDR1), mouse DDR1a, tagged with cyan or yellow fluorescent protein, sequence (Q03146 20-911): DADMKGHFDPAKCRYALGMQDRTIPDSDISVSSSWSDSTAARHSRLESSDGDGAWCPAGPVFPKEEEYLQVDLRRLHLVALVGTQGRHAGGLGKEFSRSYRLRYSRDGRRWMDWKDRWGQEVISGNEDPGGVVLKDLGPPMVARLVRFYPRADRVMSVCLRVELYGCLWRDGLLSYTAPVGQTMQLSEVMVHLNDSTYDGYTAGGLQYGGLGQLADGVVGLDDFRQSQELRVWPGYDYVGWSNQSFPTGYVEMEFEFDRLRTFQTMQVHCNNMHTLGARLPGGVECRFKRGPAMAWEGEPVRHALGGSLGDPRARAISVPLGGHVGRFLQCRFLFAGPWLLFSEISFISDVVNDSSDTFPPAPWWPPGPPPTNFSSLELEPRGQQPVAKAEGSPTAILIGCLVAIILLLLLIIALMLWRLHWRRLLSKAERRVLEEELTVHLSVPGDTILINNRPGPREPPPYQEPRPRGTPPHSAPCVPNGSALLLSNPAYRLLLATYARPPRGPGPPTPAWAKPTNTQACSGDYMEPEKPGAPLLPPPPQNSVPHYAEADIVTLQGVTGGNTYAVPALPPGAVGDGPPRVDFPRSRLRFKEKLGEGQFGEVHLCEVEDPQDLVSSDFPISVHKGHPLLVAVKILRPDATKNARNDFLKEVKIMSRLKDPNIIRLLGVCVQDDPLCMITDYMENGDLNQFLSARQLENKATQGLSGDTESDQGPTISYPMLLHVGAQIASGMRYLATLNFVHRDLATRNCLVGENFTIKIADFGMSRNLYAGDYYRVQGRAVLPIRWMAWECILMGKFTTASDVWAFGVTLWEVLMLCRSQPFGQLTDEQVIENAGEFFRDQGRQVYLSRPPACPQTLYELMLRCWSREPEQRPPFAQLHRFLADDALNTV

discoidin domain receptor 1 (DDR1), mouse DDR1a, tagged with cyan or yellow fluorescent protein
FRET index FC/A (collagen 5 min, aggregated ROI) (FRET or BRET): 14.6
FRET index FC/A (collagen 30 min, aggregated ROI) (FRET or BRET): 15.2
FRET index FC/A (collagen 60 min, aggregated ROI) (FRET or BRET): 13.8
FRET index FC/A (collagen 60 min, nonaggregated ROI) (FRET or BRET): 5.2
FRET index FC/A (0 min, no collagen) [1]: 5.1
